{
  "source": "paper PMC5389638",
  "about": "(Nucleic Acids Research, 2016)",
  "target": "the molecule itself",
  "test": "AFM volume analysis",
  "data": [
    {"protein": "6His–Ver (natural protein, Drosophila, UniProt Q9VTZ2 1-214, looked up) MDFNQSFEDIESQLDNFVIRKNQQSEKSTGKCGPEVHDNVPLTISQIERATQDPENENVFITDDVHPIHFCTCIIYAFVTGNGTHNESFMKFMIDDGTGSLEASITKKPFNGRVISSLYSEASSLASSEAYKSIAVSMMRLLQVSMEYIDPTRISRGHSLFLRGRPNRFRGKMGLDAFQFFIDSGRSRNMEIGFVDYLTDWQRRHKTMQNTTNK", "values": [
      {"measurement": "stoichiometry N", "value": 2}
    ]}
  ]
}
